Laboratory results: the nanobody polyreactivity screen of Harvey et al. (2022)

test: yeast display, Sf9 membrane polyspecificity reagent, FACS + sequencing; frameworks hold sequencing errors
Summary of the method: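 Polyreactivity labels are assigned by the sorting gate from which each nanobody was recovered. The gates were low and high (top ~1%), set on anti-HA fluorescence for expression and streptavidin fluorescence for reagent binding. Before sorting, galactose-induced (36–48 hours) yeast display cells were stained for 1 hour at 4 °C with 10% biotinylated, detergent-solubilized Sf9 membrane reagent.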

Q: For “QVQLVESGGGLVQAGGSLRLSCAASGFIFKSYTMGWYRQAPGKERELVADISKSGGSTYYADSVKGRFTISRDNAKNTVYLQMNSLKPEDTAVYYCNADIWLYVNNYSEYDYWGQGTQVTVSS”, which “polyreactivity (PSR sort gate)” value is on record?
A: high polyreactivity

Q: With “QVQLVESGGGLVQAGGSLRLSCAASGSTFRDYAMGWYRQAPGKERELVASITSGSSTYADSVKGRFTISRDNAKNTVYLQMNCLKPEDTAVYYCNADGITSLPVPALDYWGQGTQVTVSS” as the sequence, how does the “polyreactivity (PSR sort gate)” value read?
A: low polyreactivity

Q: Which “polyreactivity (PSR sort gate)” value does the source give for “QVQLVESGGGLVQAGGSLRLSCAASGRTFRYYGMGWYRQAPGKERELVAAISWSGGSTYYADSVKGRYTISRDNAKNSVYLQMNSLKPEDTAVYYCAADGQYYYGFDYWGQGTQVTVSS” here?
A: high polyreactivity

Q: With “QVQLVESGGGLVQAGGSLRLSCAASGFTFRSYDMGWYRQAPGKERELVAAISSTGRTYYADSVKGRFTISRDNAKNTVYLHMYSLNPEDTAVYYCARNIPVSYYRYGYWGQGSQVTVSS” as the sequence, how does the “polyreactivity (PSR sort gate)” value read?
A: high polyreactivity

Q: For “QVQLVESGGGLVQAGGSLRLSCAASGNIFVRYSKGWYRQAPGKERELVAVISSGGSTNYADSVKGRFTISRDNAKNTVYLQMNSLKPEDSAVYYCARKYYSQAISSRKYGYWGQGTQVTVSS”, which “polyreactivity (PSR sort gate)” value is on record?
A: high polyreactivity

Q: For “QVQLVESGGGLVQAGGSLRLSCAASGVIFGYYAMGWDRQAPGKERELVAAITLSGSRTYYADSVTGRFTISRDTAKNTVDLQMNSLKPEDTAVYYCAKRRYWYYRSRDWFVSGDYWGQGTQVTVSS”, which “polyreactivity (PSR sort gate)” value is on record?
A: low polyreactivity

Q: Which “polyreactivity (PSR sort gate)” value does the source give for “QVQLVESGGALLQAGGSLRLSCAASGRTFPGYGMGWYRQAPGKERELVAVITSNGGITYYADSVKGRFTISRDNAKNTVYLQMNSLKPEDTAVYYCAAYEIYYEFDSWGQGTQVTVSS” here?
A: low polyreactivity

Q: For “QVQLVESGGGLVQAGGSLRLSCAASGSIFYHNAMGWYRQAPGKERELVAAITWSGSTTYYADSVKGRFTISRDNAKNTVYLQMKSLKPEDTAVYYCNAGNRHGHYDYWGQGTQVTVSS”, which “polyreactivity (PSR sort gate)” value is on record?
A: low polyreactivity

Q: Which “polyreactivity (PSR sort gate)” value does the source give for “QVQLVESGGGLVQAGGSLRLSCAASGRILGAYAMGWYRQAPGKERELVASISSGGRTYYADSVKGRFTISRDNAKNTVYLQINSLKQEDTAVYYCAAEYFIWSYPRYEYWGQGTQVNVSS” here?
A: high polyreactivity

Q: For “QVQLVESGGGLVQAGGSLRLSCAPSGSTFYSYAMGGYRQAPGKERELVAAITVSGTSTYYADSVKGRFTISRDNAKNTVYLQMNSLKPEDTAVYYCAARPRRRYYGYDSWGQGTQVTVSS”, which “polyreactivity (PSR sort gate)” value is on record?
A: high polyreactivity

Q: With “QVQLVESGGGLVQAGGSLRLSCAASGSIFYYYAMGWYRQAPGKERELVAAITRSGSSTYYADSVKGRFTISRDNAKNTVYLQMNSLKPEDTAVYYCAAKSKRGSRYDSWGQGTQVTVSS” as the sequence, how does the “polyreactivity (PSR sort gate)” value read?
A: high polyreactivity

Q: For “QVQLVESGGGLVQAGGSLRLSCAASGSIFALYAMGWYRQAPGKERELVAAISYRGGRTYYADSVKGRFTISRDNAKNTVYLQMYSLKPEDTAVYNCATDFPGKFDYWGQGTQVTVSS”, which “polyreactivity (PSR sort gate)” value is on record?
A: low polyreactivity

Q: With “QVQLVESGGGLVQAGGSLRLSWAASGSIFTLNAMGWYRQAPGKERELVAAIRWSGGSTYYADSVKGRFTISRDNAKNTGYLQRNRLKPEDTAVYYCAAKYPSDYYSPGFKYWGQGTQVTVSS” as the sequence, how does the “polyreactivity (PSR sort gate)” value read?
A: high polyreactivity

Q: For “QVQLVESGGGLVQAGGSLRLSCAASGRIFTRYAMGWYRQAPGKERELVAAITSGGSTYYADSVKGRFSISRDNAKNTVYLQMNSLKPEDTAVYYCAAVVISSGVRYDYWGQGTQVTVSS”, which “polyreactivity (PSR sort gate)” value is on record?
A: high polyreactivity

Q: Which “polyreactivity (PSR sort gate)” value does the source give for “QVQLVESGGGLVQAGGSLRLSCAASGFIFVRYAMGWYRQAPGKERELVAAISSGGSTQYADSVKGRFTISRDNAKNTVDLQMNSLKPEDTPVYYCAAAATPGRGGDYWGQGTQVTVSS” here?
A: high polyreactivity

Q: Which “polyreactivity (PSR sort gate)” value does the source give for “QVQLVESGGGLVQAGGSLRLICAASGYTFSDYAMGLYRQAPGKERELVAVISQSGGSTYYADSVKGRFTISRDNAKNTVYLQMNSLKPEDTAVYDCNVYPSRRRAVGESERYYWGQGTQVTVSS” here?
A: high polyreactivity

Q: Which “polyreactivity (PSR sort gate)” value does the source give for “QVQLVESGGGLVQAGGSLRLSCAASGRTFAPYAMGWYRQAPGKERELVAAITYSGGSTYYADSVKGRFTISRDNAKNTVYLQMNSLKPEDTAVYYCAKVDSEYRQVIQQEDDYWGQGTQVTVSS” here?
A: low polyreactivity

Q: For “QVQLEESGGGLVQAGVSLRLSCAASGRIFLSNAMGWYRQAPGKEREFVAAISWRGGSTYYADSVKGRFTISRDNAKNTVYLQMNSLKPEDTAVYYCAVDVRYYYGRSYDYWGQGTQVTVSS”, which “polyreactivity (PSR sort gate)” value is on record?
A: high polyreactivity

Q: For “QVQLVESGGGLVQAGGSLRLSCAASGSIFDPNAMGWYRKALGKERELVAAITYSGVDTYYADSVKGRFTISLDNAKNTVYLQMNILKPEDTAVYFCAGDNGRVGYDYWGQGTQVTVSS”, which “polyreactivity (PSR sort gate)” value is on record?
A: low polyreactivity

Q: For “QVQLVESGGGLVQAGGSLRISCAASGSICNINAMGWYRQAPGKERELVAPISQSDGSTYYADSVKGRFTISRDNAKNTVYLQMNSLKPEDTAVYYCSADAYVLFYGDWYEFDYWGQGTQVTVSS”, which “polyreactivity (PSR sort gate)” value is on record?
A: high polyreactivity

Q: With “QVQLVESGGGLVQAGGSLRLSCAASGSIYDRYVMGWYRQAPGKERELVAAISKSGGNTYYADSVKGRFTISRDNAKNTVYLQMNSLKPEDTAVYYCNARSGRYYLGYGYWGQGTQVTVSS” as the sequence, how does the “polyreactivity (PSR sort gate)” value read?
A: high polyreactivity

Q: With “QVQLVESGGGLVQAGGSLRLSCAASGSIFGFYAMGWYRQAPGKEREFVASISDSSGSTYYADSVKGRFTISRDNAKNTVYLQMNSLKPEDTAVYYCNARVNYRWPYSWRYYWGQGTQVTVSS” as the sequence, how does the “polyreactivity (PSR sort gate)” value read?
A: high polyreactivity

Q: Which “polyreactivity (PSR sort gate)” value does the source give for “QVQIVESGGGLFQAGGSLRLSCAASGGIFDFYAMGWYRPATGKEWELVAAITRSGSSTFYADSVKGRFTISRDNAKNTVYLQMNILKPEDTAVYYCAAPYSYFAVYYGYIVEYDYWGQGTQVTVSS” here?
A: low polyreactivity

Q: With “QVQLVESGGGLVQAGGSLRLSCAASGRTFWDNAMGWYRQAPAKERELVAAITFRGGTTYYADSVKGRFTISRDNAKNTVYIQMNSLKPEDTAVYYCAARNGLYRLYYYWGQGTQVTVSS” as the sequence, how does the “polyreactivity (PSR sort gate)” value read?
A: high polyreactivity

Q: With “QVQLVESGGGLVQAGGSLRLSCAASGSTFWNAMGWYRQAPGKERELVAAIRLSGGSTYYADSVKGRFTISRDNAKNTVYLQMNRLKPEDTAVYYCATDLVFVSSDLQETAYYWGQGTQVTVSS” as the sequence, how does the “polyreactivity (PSR sort gate)” value read?
A: low polyreactivity

Q: With “QVQLVESGGGLVQAGGSLRLSCAASGMIFFNYYAMGWYRQAPGKESELVAAIRYGGGSTYYADSVKGRFTISRDNGKNTVYLQMNSLKPEDTAVYYCAARFKGYYRYGYWGQGTQVTVSS” as the sequence, how does the “polyreactivity (PSR sort gate)” value read?
A: high polyreactivity

Q: For “QVHLVESGGCLVQAGGSLRLSCSASRSIFPNNDMGWYRQQPGKERELVPAITTRGTSTYYAESVKGRFTISRDYAKNTVYLQMKSLKPEDTAVYFCAVGRRGYSAGGVAYYYWGQGTQVTVSS”, which “polyreactivity (PSR sort gate)” value is on record?
A: low polyreactivity

Q: For “QVQLVESGGRLVQAGGSLRLSCAASGRTFPYNAMGWSRQAPRKERELVAAITWSGGSTYYADSVKGRFTISRDNAKNTVYLQMNSLKPEDTAVYYCAADEIYGYDYWGQGTQVTVSS”, which “polyreactivity (PSR sort gate)” value is on record?
A: high polyreactivity

Q: With “QVQLVESGGGLVQAGGSLRLSCAASGFIIGYYAMGWYRQAPGKERELVASIRRGGSTYYADSVKGRFTISRDNAKNTVYLQMNSLKPEDTAVYYCAVPYSRFSAFRRWVKYDYWGQGTQVTVSS” as the sequence, how does the “polyreactivity (PSR sort gate)” value read?
A: high polyreactivity

Q: With “QVQLVESGGGLVQAGGSLRLSCAPSGRIFTPYAMGWYRQAPGKERELVAVIRDGSTYYADSVKGRFTISRDNAKNTVYLKMNSLKPEDTAVYYCRYDIWVWWSGAYDYWGQGTQVNVSS” as the sequence, how does the “polyreactivity (PSR sort gate)” value read?
A: low polyreactivity

Q: Which “polyreactivity (PSR sort gate)” value does the source give for “QVQLVESGGGLVQAGGSLRLSCAASGNTFKYYAMGWYRQAPGKERVLVATISRTAGSTYYADSVKGRFTISRDNAKNTVYLQMNSLKPEDTAVYYCNKDRGHPFKYDYWGQGTQVTVSS” here?
A: low polyreactivity

Q: For “QVQLGESGGGLVQAGGSLRLSCAASGRIFLRNVMGWYRPAPGKERELVAAISLSGASTYYADSVKGRFTISRDNAKNTVYLQMNSLKPEDTAVYYCAADITILSDYWGQGTQVTVSS”, which “polyreactivity (PSR sort gate)” value is on record?
A: low polyreactivity
